The values that follow come from patent US10786550B2, “Blockade of CCL18 signaling via CCR6 as a therapeutic option in treating interstitial lung disease” (UNIVERSITÄTSKLINIKUM FREIBURG, priority 2010, dated 2020).

Entries after “also recorded” stand apart in the source; their conditions may differ.

The subject of assay [1] is soluble CCR6 (sCCR6). The assay can be described thus: Blocking of free soluble CCR6 detection by ELISA. As to conditions: ligand 100 ng/ml, 1 h. The assay is classed as binding, human. The protocol: Sera were diluted with an equal volume of PBS/BSA (1% bovine serum albumin, Sigma, Deisenhofen, Germany) either without any additives or containing CCL18 or CCL20 (both PeproTech, Hamburg, Germany; 100 ng/ml each). The diluted sera were then incubated for 1 h at 37° C. and subsequently measured by ELISA.
The sCCR6 ELISA described in Example 8 uses a monoclonal anti-CCR6 antibody as a capture antibody bound at the plate and a biotin-conjugated polyclonal anti-CCR6 antibody as a detection antibody. Most of the monoclonal anti CCR6 antibodies are directed against the N-terminal part of the receptor bearing the ligand binding site. In order to test whether the antibody recognition site of the sCCR6 molecule in sera from fibrotic patients might be covered with the ligand because of the high abundance of CCL18 in these sera, sera from healthy volunteers were incubated with 100 ng/ml of CCL18 or CCL20, respectively and sCCR6 was measured in blocked and unblocked sera by ELISA. Addition of these CCR6 ligands leads to a marked reduction of the sCCR6 signal (FIG. 20).
A general note: In an ELISA, binding on a coated surface is turned into a signal by an enzyme label.

Assay [2] has as its target T1, CCR6 (Homo sapiens, UniProt P51684).
T1 sequence (P51684 1-374): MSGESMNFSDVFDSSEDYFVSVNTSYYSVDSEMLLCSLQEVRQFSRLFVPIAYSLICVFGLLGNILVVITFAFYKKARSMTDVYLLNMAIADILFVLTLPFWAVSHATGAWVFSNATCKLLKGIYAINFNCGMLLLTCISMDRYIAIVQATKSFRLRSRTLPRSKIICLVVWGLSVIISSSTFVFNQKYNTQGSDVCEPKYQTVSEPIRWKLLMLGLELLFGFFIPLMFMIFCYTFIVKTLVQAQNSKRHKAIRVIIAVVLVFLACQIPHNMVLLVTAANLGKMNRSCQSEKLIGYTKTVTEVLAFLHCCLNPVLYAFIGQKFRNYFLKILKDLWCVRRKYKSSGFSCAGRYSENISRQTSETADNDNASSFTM
The assay can be described thus: Inhibition of CCL18-induced CCR6 down-regulation on PBMNC/lymphocytes (FACS). The arrangement: endogenous in cells; host or cells: freshly isolated human peripheral blood mononuclear cells. The assay is classed as cell-based. As to conditions: for CCL18 induced down-regulation of CCR6 expression in presence of inhibitor: CCL18 10 ng/ml + inhibitor 100 ng/ml, FACS. How it is done: Freshly isolated mononuclear cells were incubated for 20 minutes with 10 ng/ml of CCL18, 100 ng/ml of the inhibitor peptide PS-AU-105 (polypeptide according to SEQ ID NO.: 9), a combination of both or were left untreated. The incubation was performed in RPMI1640 with 10% fetal calf serum and 100 U/ml Streptomycin/Penicillin at 37° C. After the incubation, the cells were centrifugated and the supernatant was discarded. The cells were fixed with 4% paraformaldehyde for 5 minutes on ice and washed twice in PBS containing 1% FCS. After fixation the cells were stained using a fluorescein-conjugated antibody against CCR6 (R&D systems, Wiesbaden, FRG) and analyzed by flow cytometry (FACScalibur and Quantiquest; both Becton Dickinson, Franklin Lakes, USA).

Assay [3] has as its system RLE-6TN. The assay can be described thus: EMT of rat alveolar epithelial cell line RLE-6TN. As to conditions: 6 days. The assay is classed as cell-based. How it is done:
(§1) If not otherwise mentioned cells were stimulated with 10 ng/ml human recombinant CCL18, 2.5 ng/ml TGFβ with or without additional 1 ng/ml TNFα.
After the indicated culture period the cells were washed once in PBS and lysed in ice cold lysis buffer. Whole cell lysates were boiled at 93° C. for 5 minutes in equal volumes of loading buffer (0.5M Tris-HCl pH 6.8, 2% SDS, 0, 05% bromphenolblue, 20% 2-mercaptoethanol, 10% Glycerol).
All samples were subjected to 12% sodium dodecylsulfate-PAGE, separated by electrophoresis and transferred to a polyvinylidene difluoride membrane (PVDF). After blocking for 2 h in Tris-buffered saline (TBS) containing 5% non-fat dry milk, the membranes were incubated with primary antibody (rabbit-anti-collagen I (Rockland, Gilbertsville Pa.); anti αSMA (rabbit-anti-aSMA (Abcam, Cambridge, Mass.); anti vimentin (Santa Cruz); anti CCR6: CKR6/C20, Santa Cruz) diluted 1:700 with TBS at 4° C. overnight. Visualization was performed using appropriate secondary antibodies labeled with IRDye 800CW or IRDye 700CW (Li-COR Bioscience, Bad Homburg, Germany) diluted 1:10 000-1:20000 for 2 h and scanned using Odyssey system (Li-COR Biosience) according to the manufactures instructions.

Assay [4] deals with RLE-6TN. Put plainly: EMT of rat alveolar epithelial cell line RLE-6TN. In kind it is cell-based. As to conditions: for differentiation into fibroblast-like cells (EMT, morphology): culture period 6 days.
In assay [5] the target is T1, CCR6. The assay can be described thus: αSMA induction in RLE-6TN transiently transfected with human CCR6. In kind it is cell-based, rat. Details: expressed in transfected cells; host or cells: RLE-6TN (rat alveolar epithelial cell line), transient transfection. From the text: In contrast, all stimulations induced the expression of CD90 (FIGS. 9B and C) although CD90 expression was more intense using CCL18. […] The cells were therefore transiently transfected with a commercially available plasmid containing a DNA sequence coding for human CCR6.

Assay [6] deals with A549. Put plainly: EMT induction by CCL18 in adenocarcinoma cell line A549. The assay is classed as cell-based, human. How it is done: Cells of the adenocarcinoma cell line A549 were seeded in 6-well plates and allowed to adhere over night. After adherence the cells were stimulated with the indicated amount of CCL18. TGFβ was used as a positive control. […]
Assay [7] concerns the target T1, CCR6. The assay can be described thus: CCL18-induced collagen I and αSMA mRNA expression in human lung fibroblast lines (real-time PCR). The assay is classed as cell-based. Details: endogenous in cells. To be noted: four human lung fibroblast cell lines. How it is done:
as §1
After the indicated culture period total RNA was extracted using TRIzol Reagent according to the manufacturer's protocol (Invitrogen, Karlsruhe, Germany). Total RNA was reverse-transcribed with StrataScript RT (Stratagene, Santa Clara, Calif.) using oligo (dT)12-18 primer to produce cDNA according to the manufacturer's protocol. Specific primers for human CCR6, collagen type I, alpha-smooth muscle actin and GAPDH were designed using Primer3 software (Whitehead Institute for Biomedical Research, Cambridge, USA; http://frodo.wi.mit.edu/cgi-bin/primer3/primer3_www.cgi), Amplify1.2 software (University of Wisconsin, USA; http://engels.genetics.wisc.edu/amplify) using LocusLink and GenBank databases (National Center for Biotechnology Information; http://www.ncbi.nlm.nih.gov/LocusLink/index.html). Accession code numbers for the nucleotide sequences used to generate the respective primers and the primer sequences are depicted in FIG. 17.
All primers were intron-spanning and synthesized by MWG-Biotech (MWG-Biotech AG, Germany). […] A threshold cycle value (Ct) was calculated and used to compute the relative level of specific mRNA by the following formula: “relative expression=2^(Ct GAPDH-Ct CCL18)×10,000” for each cDNA sample.
A general note: In qPCR the cycle at which signal appears reflects the starting amount.

The target in assay [8] is T1, CCR6. The assay can be described thus: CCL18-induced FGF2 release by lung fibroblasts (FGF2 ELISA). The arrangement: endogenous in cells. In kind it is cell-based. As to conditions: CCL18 10 ng/ml, 24 h. The protocol:
To estimate CCL18-induced FGF2 release fibroblasts were harvested, counted and seeded 300.000 cells per well in a 6-well cell culture plate in Quantum 333. Cells were allowed to attach over night and the medium was replaced with 1 ml of DMEM plus 10% FCS. Cells were either left un-stimulated or were stimulated with 10 ng/ml of human recombinant CCL18. To block CCR6/CCL18 interaction a blocking antibody against CCR6 (R&D systems, Wiesbaden, FRG) or an irrelevant antibody (mouse anti human IgG, R&D Systems) was added to a final concentration of 20 μg/ml in parallel cultures. After 24 h of culture the supernatant was harvested and stored at −80° C. until FGF2 determination.

The subject of assay [9] is human primary AECII. The assay can be described thus: EMT of human primary alveolar epithelial cells type II. In kind it is cell-based. The protocol: as §1
AECII were isolated as described previously (2). In brief, macroscopically tumor-free lung tissue was first sliced and slices were washed three times at 4° C. in phosphate-buffered saline (PBS) and then digested in sterile dispase solution (2.5 mg dispase II (Invitrogen GmbH, Karlsruhe, Germany) ml and 50 μg/ml DNase I (Roche Diagnostics, Mannheim, Germany)) at 37° C. for 60 minutes. After dispase digestion, the slices were thoroughly pipetted for several minutes using a 10 ml pipette with a wide inlet. Crude tissue and cell suspensions were filtered through nylon gauze with meshes of 50 and 20 μm. The cell suspension was then layered onto a density gradient solution (PAN Biotech GmbH, Aidenbach, Germany) and centrifuged at 800×g for 20 min.
The cells from interphase were washed and incubated in 100 mm Petri dishes (max. 6×10^7 cells/dish) in RPMI (Invitrogen, Karlsruhe, Germany) with 10% fetal calf serum (FCS) (PAA Laboratories GmbH, Colbe, Germany) and 1% penicillin/streptomycin (Biochrom AG, Berlin, Germany) at 37° C. in humidified incubator (5% CO2, 37° C.) for 15, 20 and if possible 30 minutes to remove adherent (mostly alveolar macrophages, monocytes and fibroblasts) from non-adherent cells. […]

The mark [10] stands for this setting: sera with low and medium sCCR6 concentrations.
[11] abbreviates: serum with high sCCR6 concentration.

On to “CCL20: Chemokine ligand 20, CCR6 ligand (PeproTech) [reference compound]”, for which the “sCCR6 detection by ELISA after ligand addition” value (“sCCR6 detection by ELISA” below) in assay [1] (setting [10]) is recorded as “nearly abolishes CCR6 detection; also recorded: totally blocked”. In addition, in [1] (setting [11]), the “reduction of sCCR6 ELISA signal” value came to 14% and the “sCCR6 detection by ELISA” value is recorded as “reduced by one third”.
Turning to “PS-AU-105: inhibitor peptide, polypeptide according to SEQ ID NO.: 9, binds to and inhibits CCR6 receptor (EDCCLVYTSWQIHPKFIVDYSETSPQCPK; peptide inhibitor of CCR6)”, the “CCL18 induced down-regulation of CCR6 expression in presence of inhibitor” value in [2] (20 minutes) is recorded as “diminished; also recorded: fails to down-regulate the CCR6+ sub-population”; in assay [2] (20 minutes, listed as PS-AU-1015), “this down-regulation does not occur”. Besides, in assay [2] (inhibitor 100 ng/ml without CCL18, 20 minutes), the “effect of inhibitor only on CCR6 expression” value is reported as “no effect”.
“TGFβ: cytokine stimulus used as positive control for EMT [reference compound]”: in assay [3], the “vimentin expression (Western Blot)” value was “failed to induce the expression of vimentin” and the “αSMA expression (Western Blot)” value is listed as “strong expression of αSMA”. For the same molecule, in assay [4], the “differentiation into fibroblast-like cells (EMT, morphology)” value was “undergoes epithelial-mesenchymal transition (EMT); also recorded: more pronounced”. For the same molecule, the “αSMA expression (fluorescence microscopy)” value in [4] (day 6) is “induces αSMA expression”. In addition, the “αSMA expression in CCR6 transfected versus mock transfected cells” value in assay [5] is reported as “induced αSMA expression in both cell types; also recorded: induce αSMA expression in both cell lines”.

B1: CCL18: human recombinant CCL18, chemokine ligand 18, ligand/agonist of CCR6 receptor (protein)
chain: AQVGTNKELCCLVYTSWQIPQKFIVDYSETSPQCPKPGVILLTKRGRQICADPNKKWVQKYISDLKLNA
For the molecule B1, in assay [6] (72 h), the “FSP1 mRNA expression (qPCR)” value was “marked and dose dependent up-regulation; also recorded: up-regulation of FSP1 expression”; the “snail expression (western blot)” value is on record as “induces dose-dependently the expression; also recorded: induces snail expression”. For the same molecule, the “E-cadherin expression (qPCR)” value in [6] (b569: after 24 h, b77: after 72 h) is listed as “substantially down-regulated; also recorded: down-regulation of E-cadherin expression”. Moreover, in assay [7], the “collagen I mRNA expression induced” value is “three out of four; also recorded: up-regulates collagen I expression in three of four cell lines”. Also, in [1] (setting [10]), the “sCCR6 detection by ELISA” value is on record as “nearly abolishes CCR6 detection; also recorded: totally blocked”. Besides, in assay [1] (setting [11]), the “reduction of sCCR6 ELISA signal” value was 36% and the “sCCR6 detection by ELISA” value was “reduced by one third”. The “CCR6 surface expression after incubation with CCL18” value in [2] (CCL18 10 ng/ml, 20 minutes) is given as “decrease in the percentage of CCR6^+ cells; also recorded: marked down-regulation; also recorded: diminishes the peak markedly”. The “FGF2 release on CCL18 stimulation” value in assay [8] (fibroblasts from fibrotic lungs) is “significant up-regulation; also recorded: further up-regulated”. In assay [8] (fibroblasts from non-fibrotic lungs), the “FGF2 release on CCL18 stimulation” value was “only marginal; also recorded: only marginally”. Moreover, in [3], the “vimentin expression (Western Blot)” value is “expression of vimentin” and the “αSMA expression (Western Blot)” value was “Only a faint expression of αSMA”. In addition, the “differentiation into fibroblast-like cells (EMT, morphology)” value in [4] is reported as “undergoes epithelial-mesenchymal transition (EMT); also recorded: induces a differentiation into spindle-shaped, fibroblast-like cells”. For the same molecule, in [4] (day 6), the “CD90 expression (immuno-fluorescence)” value was “more intense” and the “αSMA expression (fluorescence microscopy)” value is “did not”. Moreover, the “αSMA expression in CCR6 transfected versus mock transfected cells” value in assay [5] is “induced αSMA in CCR6 transfected cells, but not in mock transfected cells; also recorded: found in CCR6 transfected RLE-6TN but not in mock-transfected cells”. In [9] (12 days), the “αSMA and vimentin expression (Western blot)” value is listed as “strongly up-regulates both molecules”. The “induction of EMT” value in assay [9] (CCL18 with or without TNFα) was “induces EMT”.
